Results: paper doi:10.1101/2024.08.15.608188, “Myosin forces elicit an F-actin structural landscape that mediates mechanosensitive protein recognition” (bioRxiv, 2024)

Molecular target: the molecule itself
Assay: cryo-EM structure; dual motor condition (surface-anchored myosin-5 and myosin-6, 1 μM ATP) on holey carbon grids; 0.6 μM F-actin, 1 μM α-catenin ABD applied in Motility Buffer (20 mM MOPS pH 7.4, 5 mM MgCl2, 0.1 mM EGTA, 1 mM DTT) for 30 s, 25 °C; sub-saturating α-catenin; consensus and 3DVA-sorted reconstructions

B1: C-terminal actin-binding domain (ABD) of human α-catenin (AA 664-906) (domain or fragment, UniProt P35221 664-906, looked up)
chain: IAGQSARAIMAQLPQEQKAKIAEQVASFQEEKSKLDAEVSKWDDSGNDIIVLAKQMCMIMMEMTDFTRGKGPLKNTSDVISAAKKIAEAGSRMDKLGRTIADHCPDSACKQDLLAYLQRIALYCHQLNICSKVKAEVQNLGGELVVSGVDSAMSLIQAAKNLMNAVVQTVKASYVASTKYQKSQGMASLNLPAVSWKMKAPEKKPLVKREKQDETQTKIKRASQKKHVNPVQALSEFKAMDSI
notes: Tags were removed with TEV protease; also called α-catenin ABD; αE-catenin ABD; source: E. coli Rosetta2(DE3), purified (Ni-NTA, TEV cleavage, anion exchange, size exclusion); not shown: 6XHis, N-terminal, cleaved; strep tag, N-terminal, cleaved
  binding result: binds
